# The DeepSol protein solubility set
# Assay: soluble on expression in E. coli; label from the status in PepcDB or PDB records
row,Sequence,soluble on expression in E. coli
1,DKKLAIVIHDNPDPDAISSGLALKEIAKSLGVEASILYHGRIGHQENKAFVNLLGIDLGKMEEHDLKDFDEIALIDCSIPGVNNMVPPNSYVGIVIDHHPPGETEIKAEYIDIRPNFGATATIMTKYLQQLNINISKTLATALLYGIRTDTQDFKRKTDPADLSAASYLYPLSNHGILDQLEQPSMAI,not soluble
2,MSNIITDYSQYNEKQLHNFLNSIEKQLLKAERDKNKAIKKIQECELQERMIRQVLAQKHSQEKEPTPSLLNTIASKDDPEYDVSFGDFNDFLQIAKQERERHNA,not soluble
3,MGSDKIHHHHHHMERCSVLRIKRLPESLVRKIAAGEVIHNPSFVLKELVENSLDAQADRIVVEIENGGKNMVRVSDNGIGMTREEALLAIEPYTTSKIESEEDLHRIRTYGFRGEALASIVQVSRAKIVTKTEKDALATQLMIAGGKVEEISETHRDTGTTVEVRDLFFNLPVRRKSLKSSAIELRMCREMFERFVLVRNDVDFVFTSDGKIVHSFPRTQNIFERALLILEDLRKGYITFEEELSGLRIKGIVSSREVTRSSRTGEYFYVNGRFVVSEELHEVLMKVYDLPKRSYPVAVLFIEVNPEELDVNIHPSKIVVKFLNEEKVKKSLEETLKRNLARKWYRSVAYEEISSRALSVAEAPSHRWFLVKGKYAVVEVEDGLLFVDLHALHERTIYEEILSKKSWGKRRVKRNITVVLSREEKQKLEEYGFSFQGEEGALKVIEIPEFLTEDVVEEFFRDFPVDEKLKERIALAACKLATKSGEFDEEIASKLLDVFFKKRFERCPHGRPISFKISYEDMDRFFER,not soluble
4,MAYWRKWRTSMNLEALPKYYSPKSPKLSDAAPATGSGGLTITDVMAAQGMVQSKAPLGFALFLAKAGVQDPQFAIEGLLNYAMALDNPTLNKLSEEIRLQIIPYLVSFAFADYSRSAASKARCEPCAGTGFHNVLREVVKYSRSGESVIKEEWVKELCQHCHGKGEVSTACRGCKGKGIVLDEKRTRLHGAPVYKICGRCNGNRFSRLPTTLARCHVQKLVPDLTDYQWYKGYADVIDKLVTKCWQEEAYAEVQLRKVTR,not soluble
5,MSLKKIWLGILISVCTLLGADMSLWQKSTLNEIIKRGELRVGLEPGYLPFEMKDKKGNVIGFDVDLAREMAKAMGVKLKLVPTSWDGLIPGLVTEKFDIIISGMTISQERNLRVNFVEPYIVVGQSLLVKKGLEKGVKSYKDLDKPELTLVTKFGVSAEYAAKRLFKNAKLKTYDTEAEAVQEVLNGKADMFIFDLPFNVAFMAQKGQGYLVHLDTSLTYEPLGWAIKKGDPDFLNWLNHFLAQIKHDGSYDELYERWFVDTKWLEKIQEGHHHHHH,soluble
6,MGSDKIHHHHHHMADFQGETEMTAEVFDPRALRDAFGAFATGVTVVTASDAAGKPIGFTANSFTSVSLDPPLLLVCLAKSSRNYESMTSAGRFAINVLSETQKDVSNTFARPVEDRFAAVDWRLGRDGCPIFSDVAAWFECSMQDIIEAGDHVIIIGRVTAFENSGLNGLGYARGGYFTPRLAGKAVSAAVEGEIRLGAVLEQQGAVFLAGNETLSLPNCTVEGGDPARTLAAYLEQLTGLNVTIGFLYSVYEDKSDGRQNIVYHALASDGAPRQGRFLRPAELAAAKFSSSATADIINRFVLESSIGNFGIYFGDETGGTVHPIANKDAHS,not soluble
7,WLSRSERYIPMMREVLRKEGLPEDLVYLAMIESGFTPHAVSVASAVGPWQFISGTGKRYDLRIDQWIDERRDPLKSTVAAAMYLKELYSLFNQDWYLAAAGYNAGENKILRAIDKYNTRDFWEISKGSYLKRETKDYVPKLLAAAIIAKEPARYGFADVAYLPPIEFD,not soluble
8,MAIDYSKWDKIELSDDSDVEVHPNVDKKSFIKWKQQSIHEQRFKRNQDIKNLETQVDMYSHLNKRVDRILSNLPESSLTDLPAVTKFLNANFDKMEKSKGENVDPEIATYNEMVEDLFEQLAKDLDKEGKDSKSPSLIRDAILKHRAKIDSVTVEAKKKLDELYKEKNAHISSEDIHTGFDSSFMNKQKGGAKPLEATPSEALSSAAESNILNKLAKSSVPQTFIDFKDDPMKLAKETEEFGKISINEYSKSQKFLLEHLPIISEQQKDALMMKAFEYQLHGDDKMTLQVIHQSELMAYIKEIYDMKKIPYLNPMELSNVINMFFEKVIFNKDKPMGKESFLRSVQEKFLHIQKRSKILQQEEMDESNAEGVETIQLKSLDDSTELEVNLPDFNSKDPEEMKKVKVFKTLIPEKMQEAIMTKNLDNINKVFEDIPIEEAEKLLEVFNDIDIIGIKAILENEKDFQSLKDQYEQDHEDATMENLSLNDRDGGGDNHEEVKHTADTVD,soluble
9,GPGSMQKSKRHGMHMDFNPLEHCNAPMDSVVGYSSDVPSMSNCHRHWLSETYAYTTIGYPHEVMKKMPYGSEWKRAPTGLCWTADEFVARYLLHTRGIFVYFGGSRHDLYWENLKFFGSSGMHRLYERINFENKVEVTTTKRRKRHTPLVGDVVVWDSDYKAYFPRGHVAVVVKVEDDVSAAGGEAALRELKKERRQPSLVYIAEQNFDNKNWEGRNFSRVLKFTWMRGDRASLEDPDGPPLMGHVRVGKLLEDASFFGDL,not soluble
10,QRNGFCRLPADEGICKALIPRFYFNTETGKCTMFSYGGCGGNENNFETIEECQKACGAPERVNDFESADFKTGCEPAADSGSCAGQLERWFYNVQSGECETFVYGGCGGNDNNYESEEECELVCKNM,soluble
11,MGSDKIHHHHHHMNIAILNHYASIPEVGSAETRHFELAKRFVREGHRVDIYIGDFSHLTGKRWSETFGWSFSKDGVDFIVVETREYTGNSLSRLLSSIDYYRNGRKKIIQKRYDVIIASSPHPFSWSLGWYYVRRKGGKFFIEIRDVWPDDLVKLGSLSYRHPVSKLFDHMCKKYYPKADGFISLVPDLSEHFNRLKVRPENFIYIPNGVDLKVFKDPEPCPVVDEVFSKVPDGKIKVVYAGSIVEHKGIKEFIETLSKVNKNLRDRFVFFFVGPSHADYLVSVKETAKDLQNVFFFDPVPKRCVPYLLQKADVLLFTLSQTVMDHPAVSSYKVVDYMASGKPVLCVDIENLPFKKTKGAVFFREDNLEEALRRIFEEDLSELGRRNREYVERERDWDRLYEKLRSFVLS,not soluble
12,MSLKFMYSALLGNPVEHSISDELFEYLNHNIGVLDEYKHKKILVDSVCLEDKIKHLINDPKCIGLNITLPYKREVMRYIDNLDRVAEITGSVNNIYKSGNIITGTNTDWKGIYNTLVFFNISHITKCCVLGTGGTARAAIFALQKLQISPTVVYREPISENTRSLIKSFPDLKYITYKELADQQILNDMEIIINTTPVGMINYEESLPINFDHLDNVNYKDKYFMDVVFNPLHTKLHEYFGKKGAKIIDGLWVLIFQGIEAFSLWSDKINDGKYFFSEGHHHHHH,not soluble
13,TIYLYKNSIPSGKNKGENAILIDNKTIVEQLESAAKKEDKKSGESTTEQTQIQSKSVTEQKQPKIIGYTTTGNVHEDNKHIFPIDKLTSDRNFDRKIIVGATEETLDKSNTLQSNEAIVLPAPSKYKSTDTNKVTITQGPNIIGIHVNEKENAETQKFVDW,soluble
14,MTTSCLQEKIDKLQNTVHALLHKSNYMAGVYVDDLARLNNEIHEQINDLYPCHGKTAEQEAALCLSLLMGYSVSMYANSEDEAKKKTVLRRSQMILKNQLPSPLKIQLHTIYDKLLS,not soluble
15,MTEYERPQTPGVVTHDAVVLAGGAARRLGGADKPGVRVGGRALLDRVLAACAGAATTVVVADPRATARPVVWAREEPPGAGPVAALDAGLRRTTAAYVVVLSADLPFLDEETVRRLLSTLQASGTEGVLLTDPGGRDQPLVAAYRSAALRRELAELAAGHGTLAGLPLRVLVAALDLTRVSDPVASFDCDTWDDIAAARSRIREHGNVLDEWISAVKDELGIDLAVDTGILLDLARDAAHGVARPAAPLTTFLVGYAAAQAGGGPEAVAEAARKAAALALRWADEAAAEAGPDAGLEHHHHHH,not soluble
16,MWVEKKKDKKGNITYQYRERYTDPRTGKTQKVTTTLAKNTKQAENAARRELEIKIQKILTDYEEEKRLENLIKNEGVIPNDKTLEDMIKEWFDYIQDPKSKERKKGSTLSGYSYGIDSLLNEFLVIEKDKRIQDLTFDDIQAFYDRMIFDFEYQKSYIKRFRAIIRGAFTLAYKKRYIKNLDAINLSKIVTPAKTVDDLINEQVPRYLEKAEAEQIFQVLNGYNPLYTQILELQFHTGMRFGELIALESKNFHDGFLLDIHGTYDHATRSHTRGQKVPPKTRKSFRTIELGDAAVQIIKDRMYHNHFIKNKNSDFLFVTSNDRPYDLGTINSFIASHQIEFNTSTKVSTHVFRHTHISMLAEKSIPIQVIMDRVGHEDRETTEKIYMHVTKKQKTDLVKTLNEL,not soluble
17,VVFVTVGTTSFDALVKAVVSQNVKDELQKRGFTHLLIQMGRGIFFPTKCDGADGSLVVDYFTFSSSIADYIRSASLVISHAGSGSIFETLKLGKPLIVVVNEDLMDNHQCELAEALEERKHLYYTRPHSLHQTLTKMELGSLVQYTPGDGTPVARIIDRFLGFPDD,not soluble
18,MGSSHHHHHHSSGLEVLFQGPLHMGIKYQKIGDVVIVKKELSEDEIREIVKRTKCKAILLYTTQITGEFRTPHVKILYGKETETIHKEYGCLFKLDVAKIMWSQGNIEERKRMAFISNENEVVVDMFAGIGYFTIPLAKYSKPKLVYAIEKNPTAYHYLCENIKLNKLNNVIPILADNRDVELKDVADRVIMGYVHKTHKFLDKTFEFLKDRGVIHYHETVAEKIMYERPIERLKFYAEKNGYKLIDYEVRKIKKYAPGVWHVVVDAKFERI,soluble
19,MQSIPIKNVGESRLVDPFQRQYYYLRLSITDQCNFRCTYCLPDGYQPEANKPSFLTLKEITHLAQAFAEMGTEKIRLTGGEPTLRKDFISIAESITNIDGIRQLAVTTNGYRMAKDVADWKKAGITSINVSVDSLDPKMFHQITGINKFDDVMRGIDRAFEVGYNKVKVNSVLMKNLNDKEFEQFLAWVKDRPIQMRFIELMQTGEMDSFFDKFHLSGQVLADKLLKNGWTLQHKSHTDGPAKVFTHPDYAGEIGLIMPYEKNFCASCNRLRVSAKGKLHLCLFGEEGIELRDLLQSHEQQGILQARIFAALQGKREHHYLHIGDTGVRNHLASIGGMGHHHHHHSH,not soluble
20,MGNQLDRITHLNYSELPTGDPSGIEKDELRVGVAYFFSDEEEELDDRSQSDSFKDNNSPSKDGPVARNEIEYTAFCCQECIYSKLRENEDLNVYSVKTLLTMCKPGDLLELVANAQPPHWAIFEGEDQVIHLYKGEIRKDSLFEISCGRQARIVNNRYRYRPLPADLVMQNASGHVGLSSGEICWTNSESFAAWCRFGKREFKAGGEVHSVEQRYFLKVHLSESTAHTLMFRSLEEMIRERRRVDASGILKELSLVTGKE,not soluble
21,MSRAASLRAELTSLANAFEEERISSAERLDADLVRQAVEQAKPENLEQWKQVVHDATAKLQQFWEDSEQALIRETYALATSYLRESDDEVHRLQMTKKALEEQLETERRRSTRIEEQLAALQSRLLDSAAPAATTPADDARTQQEVLRSELQGFMQELVRNQRESLRVLQEELQRVREEASVREENLLRQIAHLKTELAVARTDNEVSSRQLRQLETSAGREEVQDELGPGTIWPPHLTPRRGHRRFQRHNRLEDAPAPPEF,not soluble
22,MTSYEEETDYRNVPRELLDNNIPMGRGMIKWAPFATLPEQFETIQQYIIDQNKITRPVLSDDQLAELNIRLHEALQYAQPVEVKFYNNGFVDSVRLTIYRIDAINYEIDGYVYNQQQRQKISIFDILDIVLLP,not soluble
23,MGSDKIHHHHHHMYKRNERLNLIRKRVDQYGQVAVKDLAIFLQVTPETVRKDLETLENDKLITRTHGGAIQYNHINKEKSYANKWQKQSQVKERIAKKAALQIKSGEIIVIDGGTTTGRIPQYLNDITQTTIVTNSLKIADELNRAIEEQRIQAEVIMLAGKTNTEQDVVRGHMTNELLQRFKFDKAFISCGSFDTSDCYEFDLEEAHASHIMIQKSQLSYLLADSSKRDAHASYRIDGFSEIDYMISDYAKPQNIEYFNQKHWLQI,not soluble
